In patent US20030120051A1 (SUGEN, published 2003):

Target: T1, rat CASPR/p190 (rat, UniProt P97846 21-1381)
T1 construct: Endogenous in GH3 cells and rat brain, or expressed from pCM190R in COS7 cells; read from membrane lysates; no cleavage site stated; also called Contactin ASsociated PRotein; 190 kDa protein
T1 sequence: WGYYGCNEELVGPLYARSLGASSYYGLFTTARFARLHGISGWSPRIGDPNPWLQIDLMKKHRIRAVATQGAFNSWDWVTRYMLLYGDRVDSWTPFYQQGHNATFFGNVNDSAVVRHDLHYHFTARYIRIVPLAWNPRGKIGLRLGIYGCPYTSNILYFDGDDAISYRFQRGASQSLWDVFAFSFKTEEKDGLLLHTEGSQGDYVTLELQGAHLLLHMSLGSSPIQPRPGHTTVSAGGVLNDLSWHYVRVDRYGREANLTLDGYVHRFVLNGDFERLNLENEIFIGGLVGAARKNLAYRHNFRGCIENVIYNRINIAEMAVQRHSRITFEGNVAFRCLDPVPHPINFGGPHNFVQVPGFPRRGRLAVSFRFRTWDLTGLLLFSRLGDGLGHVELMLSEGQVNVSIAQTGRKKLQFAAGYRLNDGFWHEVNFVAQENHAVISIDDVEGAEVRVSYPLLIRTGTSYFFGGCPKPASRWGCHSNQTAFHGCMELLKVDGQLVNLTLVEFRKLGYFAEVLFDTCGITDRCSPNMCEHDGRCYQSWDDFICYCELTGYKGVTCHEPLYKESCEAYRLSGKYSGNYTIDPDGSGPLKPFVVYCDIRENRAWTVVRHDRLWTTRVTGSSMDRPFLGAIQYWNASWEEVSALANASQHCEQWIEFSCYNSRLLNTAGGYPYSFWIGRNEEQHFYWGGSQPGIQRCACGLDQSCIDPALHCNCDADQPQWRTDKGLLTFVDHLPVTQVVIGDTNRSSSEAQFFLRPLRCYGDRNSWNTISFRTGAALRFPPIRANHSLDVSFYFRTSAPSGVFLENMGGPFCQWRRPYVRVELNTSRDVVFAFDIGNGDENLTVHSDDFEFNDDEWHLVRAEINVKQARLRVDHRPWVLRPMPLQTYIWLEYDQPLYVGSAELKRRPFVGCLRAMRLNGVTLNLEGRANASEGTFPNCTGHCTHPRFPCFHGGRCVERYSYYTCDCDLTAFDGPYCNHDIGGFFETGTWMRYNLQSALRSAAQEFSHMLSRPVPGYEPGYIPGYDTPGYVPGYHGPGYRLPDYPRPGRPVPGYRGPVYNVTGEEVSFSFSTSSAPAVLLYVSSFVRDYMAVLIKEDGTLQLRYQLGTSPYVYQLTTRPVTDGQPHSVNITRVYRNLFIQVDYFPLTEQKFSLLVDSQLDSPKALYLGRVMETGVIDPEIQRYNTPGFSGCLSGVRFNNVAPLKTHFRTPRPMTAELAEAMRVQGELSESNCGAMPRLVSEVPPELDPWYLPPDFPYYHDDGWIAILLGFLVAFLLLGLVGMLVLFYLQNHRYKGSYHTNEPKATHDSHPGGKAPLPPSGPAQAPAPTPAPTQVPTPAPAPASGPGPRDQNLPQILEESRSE
Test: bioaffinity precipitation from membrane extracts of labeled GH3 cells

B1: βF-Fc (FNIII domain of RPTPβ fused to human IgG1-Fc) (Fc fusion)
chain: not shown
notes: domain: FNIII; also called the FNIII domain alone; fibronectin domain alone; not shown: human IgG1 Fc (vector pCNγ1)
binding result: no binding
